According to publication PMC6321638:

Target: L52A or F85A
Assay: pull-down; GST-pulldown: purified His-SOUL (5 µM) and GST-ALG-2 (5 µM) with Glutathione Sepharose 4B in buffer B (100 mM Tris-HCl pH 7.5, 100 mM NaCl, 10% glycerol) with 20 µM CaCl2 (or various amounts of Ca2+), 30 min at 4 °C; SDS-PAGE, Coomassie

binding relative to ALG-2^WT (percent): 80 to 90%
B1: His-SOUL^WT (wild-type SOUL fused to His-tag) (natural protein)
chain: MAEEPEPDLGVAEGSEDQALEMPSWKAPEDIDPQPGSYEIRHYGPAKWVSTCVESLDWDSAIQTGFTKLNGYIQGKNEKEMKIKLTAPVTSYVEPGSSPFSESTITISLYIPSEQQPDPPRPSESDVFIEDRAEMTVFVRSFDGFSSGQKNQEQLLTLANILREEGKVFNEKVFYTAGYSSPFQLLDRNNEVWLIQKNEPSVENK
